Results published in paper PMC11010949 (Protein Science : A Publication of the Protein Society, 2024).

How the values were obtained:
[1] = biological target: VPS29–VPS35C subcomplex (UniProt Q96QK1;Q9UBQ0); test: crystal structure
[2] = biological target: VPS29 (as expressed for the complexes, pMR101A‐VPS29) (UniProt Q9UBQ0); test: crystal structure

## SNIFDDPLNAFGGQ [peptide FAM21‐R21 (1328-SNIFDDPLNAFGGQ-1341)]
[1]
  binding result: binds
[2]
  binding result: binds
